The record followed here is the DeepSol protein solubility set.

A short description of this data set: soluble on expression in E. coli; label from the status in PepcDB or PDB records.
Regarding “MKLAVITDSSVYLPQDFVQREDLFILDIDITIDGKTYIEGKNLSLDEFYTKMAASKELPKTSQPNLAELDDLLTNLEEEAYTHVIGLFLSGGISGFHQNIQYLIAEHDKLEIAFPDTKITSSPMGLMVMEALKWGREEIAFEQILVNLQVMIDKTNAFIMVDDLNHLVKGGRLSNGSALLGNLLSIKPILYFTNGRIEVFEKVRTEKKAIKRLISIIDEVTADGSYMVYIIHANARGKAEDLQKRLVDHGYTKNLAIVPFNGVIATHLGEGAIALGAIPII”, the “soluble on expression in E. coli” value was “not soluble”.
As for “MKLAYWMYAGPAHIGTLRISSSFRNVHAIMHAPLGDDYFNVMRSMLERERNFTPVTTSVVDRNVLARGSQEKVIDNILRKDTEERPDLIVLTPTCTSSILQEDLQNFVERAKESAQCDVLLADVNHYRVNELQAADRTLEQIVRFYLDRAQRQGTLPSQRTEQPSVNILGMTTLGFHNRHDTTELQRLMADLGITVNAVIPAGASVEELQHLPRAWFNLVPYREVGLLTAQYLQDTFDQPMVAIAPMGITATADCIRQIQQVLNQQGAAVDFEPFIDRQTRFASEAAWFSHSIDCQNLTGKRAVVFGDNTHAAAFTKILSREMGIHVVLAGTYCKHDADWFEAEVAGYCDRVLISDDHNAIADAIAELEPAAIFGTQMERHVGKRLNIPCGVIAAPVHIQNFPVGYRPFVGYEGANQIVDLVYNSFTLGMEDHLLEIFGGHDTKEVLTKTVSAGSDLDWKPDGLTELNRIPGFVRGKVKRNTEKYAREQGLTAITAEVLYAAKEALGALEHHHHHH”, the entry is “not soluble”; as for “MKLGILHFTDSHIKSATDWILSEFSSLVASVKTIYEECDRIYIVFTGDVVYSGSEEEYILASKFLNSIRSLLKTLYKDKVYEQIIFTPGNHDCNFNMDRQARKML”, “not soluble”; as for “MKLGVIAAMDLELQKLLEYFPPQRKIQLAKNTFYIYEQKTSQVIMVCAGQGKTNATLYSQILIDSFQIEQLINIGICGCLNEKLQLFEMVLGEEYCHYDIRERQSINKFPYQLYYKGDKGMLAELQHLDEKIKCVRFGTGEGFVCDTTEKRNLIEQFSIDCVDMESAAIAQCCFLNDCAFVSIRIICDRADANAVKVTEDTQTQAMEKVFELVCAYIN”, “not soluble”.
With “MKLILNTPGLYLCKRGECFQIQSENEKREIAATKVDQIMITTHAALTTDAIELALEYNIDIIFLKNTGQPMGRVWHSKLGSISTIRRKQLFLQDSPLGLQLVKEWILEKMDNQIRLLKKLEVNRRDDEKRAIIRDTIEKIEKQKANIMSINNKETVNNVRNMLLGYEGTAGRVYFETLGKLIPEKYAFEARSRNPAKDPFNCMLNYSYGILYSSVEKACIIAGLDPYIGIMHTDNYNKKALVYDMVEMYRGYMDEIVFRLFSTKKVQDDFFDKIEDGYYLNKEGKQLLISEYNKELEVKMNYRGRRIEFANIIQYDCHQIANRILKEDIPC” the entry was “soluble”.
For the sequence “MKLIWSPETASKAYIDTVKSCENLGTPGAAELVAAMAAGWNANLIVETWSEGETIAISVGLNIASRHTNGRHICIVPNARSQTAYLQAMAEQSCSNLPETIIMNEEGEELEHTMQTLQGIDFLVVDWDQKDFAANVLRNAVFGSRGAVVVCRSGYRRSTSCFSWTKAFSDRNVVRTVTLPVSGGLEIAHVAAARSSGKSDNNSNKRKWIKHFDQRSGEEHVIRK”, the “soluble on expression in E. coli” value is “soluble”.
With “MKLKKTDVFNLDGTVKQTAFIHDQKTGKKNTLYLKPVQQDLMLYHAWLIQQNMNSEWLFPSTSRPDRPITEKQFYKIMARVGDLLGINYLGTHTMRKTGAYRVYTQSNYNIGLVMHLLNHSSEAMTLTYLGLDQASRENMLDQIDFG” the entry was “not soluble”; with “MKLKVTVNGAGKAGEGEIPAPLAGTVSKILVKEGDTVKAGQTVLVLEAMKMETEINAPTDGKVEKVLVKERDAVQGGQGLIKIG”, “soluble”; with “MKLKYSGLTASGNTHPKFTRGDIYRDQYGGMVTIKGVAERRITYRREGYEYDCVMPVYQFRRDFTLVQAAPRSKPTSREKARANIQEIKKMLNVFRGKK”, “not soluble”.
As for “MKLLKTKNCLYYRNGDNKLSEYQLLTQFNPAFINKKIKMCEFQIESMYHMSASTTTCDEIMGVVSVSYPIEKLVIKIIETKAGLQNYKNRSINNMALLKKVLNHYTEKEQKQVVKYMRSNGRYKPYNVIERLQVDLYQASIKQRSERQKQRNTAIENSKIARVNAYHQSSYVKVV”, the entry is “not soluble”.
